Test results published in PMC10397247.

Tests used:
Test in all cases: two-hybrid library CCmax;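 note: natural log of median RNA to DNA barcode read ratio; higher means stronger binding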
[1] = target: T1, O13-AA; conditions: mean of both orientations
T1 chain: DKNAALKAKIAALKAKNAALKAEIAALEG

[2] = target: T2, 4H2736-AA; conditions: mean of both orientations
T2 chain: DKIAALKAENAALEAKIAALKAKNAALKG

[3] = target: T3, 4H1193-AA; conditions: mean of both orientations
T3 chain: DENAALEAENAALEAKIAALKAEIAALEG

[4] = target: T4, 4H384-AA
T4 chain: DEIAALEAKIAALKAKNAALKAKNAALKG

[5] = target: T5, 4H2622-AA; conditions: mean of both orientations
T5 chain: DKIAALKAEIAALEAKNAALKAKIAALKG

[6] = target: GCN2_T
[7] = target: T6, 4H337-AA; conditions: mean of both orientations
T6 chain: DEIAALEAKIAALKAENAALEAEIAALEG

[8] = target: T7, 4H3625-AA; conditions: mean of both orientations
T7 chain: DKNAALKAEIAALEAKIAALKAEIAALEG

[9] = target: T8, 4H3049-AA; conditions: mean of both orientations
T8 chain: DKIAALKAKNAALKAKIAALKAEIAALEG

[10] = target: 4H_GCN4; conditions: mean of both orientations
[11] = target: T9, 4H451-AA; conditions: mean of both orientations
T9 chain: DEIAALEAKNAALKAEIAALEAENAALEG

[12] = target: T10, 4H3590-AA; conditions: mean of both orientations
T10 chain: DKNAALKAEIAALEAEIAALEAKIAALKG

[13] = target: T11, 4H43-AA; conditions: mean of both orientations
T11 chain: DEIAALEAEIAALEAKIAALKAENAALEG

[14] = target: T12, 4H4038-AA; conditions: mean of both orientations
T12 chain: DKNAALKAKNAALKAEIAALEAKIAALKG

[15] = target: T13, 4H1385-AA; conditions: mean of both orientations
T13 chain: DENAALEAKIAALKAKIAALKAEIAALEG

[16] = target: T14, 4H3587-AA; conditions: mean of both orientations
T14 chain: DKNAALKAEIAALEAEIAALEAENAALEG

[17] = target: T15, 4H_BCR; conditions: mean of both orientations
T15 chain: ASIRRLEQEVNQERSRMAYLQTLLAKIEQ

[18] = target: T16, 4H2888-AA; conditions: mean of both orientations
T16 chain: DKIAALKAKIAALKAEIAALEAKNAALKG

[19] = target: T17, 4H2705-AA; conditions: mean of both orientations
T17 chain: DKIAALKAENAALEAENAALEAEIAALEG

[20] = target: T18, 4H1350-AA; conditions: mean of both orientations
T18 chain: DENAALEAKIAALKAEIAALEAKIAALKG

[21] = target: T19, 4H1392-AA; conditions: mean of both orientations
T19 chain: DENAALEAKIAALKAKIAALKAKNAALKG

[22] = target: T20, 4H3905-AA; conditions: mean of both orientations
T20 chain: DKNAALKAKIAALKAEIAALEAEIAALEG

[23] = target: T21, 4H1070-AA
T21 chain: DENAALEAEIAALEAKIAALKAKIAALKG

[24] = target: T22, O11-AA
T22 chain: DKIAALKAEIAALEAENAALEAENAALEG

[25] = target: T23, 4H510-AA; conditions: mean of both orientations
T23 chain: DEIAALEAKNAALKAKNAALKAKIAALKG

[26] = target: T24, O14-AA; conditions: mean of both orientations
T24 chain: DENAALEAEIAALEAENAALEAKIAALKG

[27] = target: T25, 4H134-AA; conditions: mean of both orientations
T25 chain: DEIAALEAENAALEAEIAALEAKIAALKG

[28] = target: T26, 4H122-AA; conditions: mean of both orientations
T26 chain: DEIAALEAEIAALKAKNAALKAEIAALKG

[29] = target: T27, 4H566-AA; conditions: mean of both orientations
T27 chain: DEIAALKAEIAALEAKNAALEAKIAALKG

[30] = target: T28, 4H993-AA; conditions: mean of both orientations
T28 chain: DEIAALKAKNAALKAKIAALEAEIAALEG

[31] = target: T29, 4H1324-AA; conditions: mean of both orientations
T29 chain: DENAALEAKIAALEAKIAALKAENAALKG

[32] = target: T30, 4H794-AA; conditions: mean of both orientations
T30 chain: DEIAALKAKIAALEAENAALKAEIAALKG

[33] = target: T31, 4H317-AA; conditions: mean of both orientations
T31 chain: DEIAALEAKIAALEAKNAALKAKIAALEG

[34] = target: T32, 4H906-AA; conditions: mean of both orientations
T32 chain: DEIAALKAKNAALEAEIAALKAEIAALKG

[35] = target: T33, 4H3427-AA; conditions: mean of both orientations
T33 chain: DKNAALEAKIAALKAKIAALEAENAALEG

[36] = target: T34, 4H2944-AA; conditions: mean of both orientations
T34 chain: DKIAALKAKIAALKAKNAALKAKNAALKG

[37] = target: T35, 4H2949-AA; conditions: mean of both orientations
T35 chain: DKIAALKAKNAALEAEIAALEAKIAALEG

[38] = target: T36, 4H3655-AA; conditions: mean of both orientations
T36 chain: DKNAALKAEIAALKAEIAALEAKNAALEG

[39] = target: T37, 4H2165-AA; conditions: mean of both orientations
T37 chain: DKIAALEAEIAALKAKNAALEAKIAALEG

[40] = target: T38, 4H605-AA; conditions: mean of both orientations
T38 chain: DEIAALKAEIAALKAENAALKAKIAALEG

[41] = target: T39, 4H2575-AA; conditions: mean of both orientations
T39 chain: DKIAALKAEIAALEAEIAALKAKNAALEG

[42] = target: T40, 4H454-AA; conditions: mean of both orientations
T40 chain: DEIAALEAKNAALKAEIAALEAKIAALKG

[43] = target: T41, 4H3343-AA; conditions: mean of both orientations
T41 chain: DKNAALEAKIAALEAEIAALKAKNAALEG

[44] = target: T42, 4H1636-AA; conditions: mean of both orientations
T42 chain: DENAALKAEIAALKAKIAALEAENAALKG

[45] = target: T43, 4H234-AA; conditions: mean of both orientations
T43 chain: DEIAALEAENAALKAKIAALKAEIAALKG

[46] = target: T44, 4H3627-AA; conditions: mean of both orientations
T44 chain: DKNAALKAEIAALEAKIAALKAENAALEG

[47] = target: T45, 4H1867-AA; conditions: mean of both orientations
T45 chain: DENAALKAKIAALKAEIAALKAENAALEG

[48] = target: T46, 4H1086-AA
T46 chain: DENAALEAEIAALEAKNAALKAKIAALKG

[49] = target: T47, 4H1352-AA; conditions: mean of both orientations
T47 chain: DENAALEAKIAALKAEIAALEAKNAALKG

[50] = target: T48, 4H2277-AA
T48 chain: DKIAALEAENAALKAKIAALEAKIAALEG

[51] = target: T49, 4H1135-AA; conditions: mean of both orientations
T49 chain: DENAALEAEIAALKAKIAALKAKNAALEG

[52] = target: T50, 4H3844-AA; conditions: mean of both orientations
T50 chain: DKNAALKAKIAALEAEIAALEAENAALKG

[53] = target: T51, 4H2505-AA; conditions: mean of both orientations
T51 chain: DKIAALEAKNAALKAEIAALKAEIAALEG

[54] = target: T52, 4H2754-AA; conditions: mean of both orientations
T52 chain: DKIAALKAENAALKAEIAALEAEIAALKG

[55] = target: T53, 4H1153-AA; conditions: mean of both orientations
T53 chain: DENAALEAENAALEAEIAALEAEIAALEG

[56] = target: T54, 4H2393-AA; conditions: mean of both orientations
T54 chain: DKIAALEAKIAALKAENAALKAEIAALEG

[57] = target: T55, 4H2078-AA; conditions: mean of both orientations
T55 chain: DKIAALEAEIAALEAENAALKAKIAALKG

[58] = target: T56, 4H3921-AA; conditions: mean of both orientations
T56 chain: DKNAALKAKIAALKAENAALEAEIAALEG

[59] = target: T57, 4H342-AA; conditions: mean of both orientations
T57 chain: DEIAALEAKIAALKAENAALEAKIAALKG

[60] = target: T58, 4H2837-AA; conditions: mean of both orientations
T58 chain: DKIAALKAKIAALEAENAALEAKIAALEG

[61] = target: T59, 4H2354-AA; conditions: mean of both orientations
T59 chain: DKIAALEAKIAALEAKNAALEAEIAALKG

[62] = target: T60, 4H2617-AA; conditions: mean of both orientations
T60 chain: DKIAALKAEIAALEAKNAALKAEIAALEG

[63] = target: T61, 4H678-AA; conditions: mean of both orientations
T61 chain: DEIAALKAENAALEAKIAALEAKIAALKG

[64] = target: T62, 4H1552-AA; conditions: mean of both orientations
T62 chain: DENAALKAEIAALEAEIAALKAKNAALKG

[65] = target: T63, 4H335-AA; conditions: mean of both orientations
T63 chain: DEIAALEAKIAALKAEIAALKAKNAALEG

[66] = target: T64, 4H780-AA; conditions: mean of both orientations
T64 chain: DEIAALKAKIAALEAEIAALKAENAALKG

[67] = target: T65, 4H2466-AA; conditions: mean of both orientations
T65 chain: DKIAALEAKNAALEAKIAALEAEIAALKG

[68] = target: T66, 4H2642-AA; conditions: mean of both orientations
T66 chain: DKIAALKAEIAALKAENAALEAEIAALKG

[69] = target: T67, 4H2729-AA; conditions: mean of both orientations
T67 chain: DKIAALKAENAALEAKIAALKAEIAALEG

[70] = target: T68, 4H717-AA; conditions: mean of both orientations
T68 chain: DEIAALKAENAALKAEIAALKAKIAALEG

[71] = target: T69, 4H3112-AA; conditions: mean of both orientations
T69 chain: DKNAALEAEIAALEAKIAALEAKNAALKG

[72] = target: T70, 4H881-AA; conditions: mean of both orientations
T70 chain: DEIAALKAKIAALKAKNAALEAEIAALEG

[73] = target: T71, 4H2190-AA; conditions: mean of both orientations
T71 chain: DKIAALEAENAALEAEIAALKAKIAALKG

[74] = target: T72, 4H429-AA; conditions: mean of both orientations
T72 chain: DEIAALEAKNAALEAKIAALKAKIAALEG

Sequence of 4H_GCN4 (chain, as listed by the source): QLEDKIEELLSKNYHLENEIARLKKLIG

B1: 4H1070-AA (peptide)
chain: DENAALEAEIAALEAKIAALKAKIAALKG
[1]
  interaction score: -0.784
[2]
  interaction score: -0.965
[3]
  interaction score: -0.64
[4]
  interaction score: -0.364
[5]
  interaction score: 1.21
[6]
  interaction score: -0.746
[7]
  interaction score: 0.472
[8]
  interaction score: 1.73
[9]
  interaction score: 0.86
[10]
  interaction score: -1.5
[11]
  interaction score: -1.11
[12]
  interaction score: 2.25
[13]
  interaction score: 1.94
[14]
  interaction score: 1.53
[15]
  interaction score: 1.6
[16]
  interaction score: 1.56
[17]
  interaction score: -1.54
[18]
  interaction score: 1.51
[19]
  interaction score: -1.19
[20]
  interaction score: 1.96
[21]
  interaction score: -0.733
[22]
  interaction score: 2.23
[23]
  interaction score: 2.05
[24]
  interaction score: 1.22
[25]
  interaction score: -1.68
[26]
  interaction score: 0.236
[27]
  interaction score: 1.2

B2: 4H1086-AA (peptide)
chain: DENAALEAEIAALEAKNAALKAKIAALKG
[28]
  interaction score: -0.74
[29]
  interaction score: -0.902
[30]
  interaction score: -0.479
[31]
  interaction score: -0.552
[32]
  interaction score: -0.327
[33]
  interaction score: -0.992
[34]
  interaction score: -1.8
[35]
  interaction score: -0.568
[36]
  interaction score: -1.29
[37]
  interaction score: 0.739
[38]
  interaction score: -0.935
[39]
  interaction score: -1.24
[40]
  interaction score: -0.771
[41]
  interaction score: 0.522
[42]
  interaction score: -0.949
[43]
  interaction score: -1.72
[44]
  interaction score: -1.62
[45]
  interaction score: -1.17
[46]
  interaction score: -0.932
[47]
  interaction score: -1.02
[48]
  interaction score: -1.1
[49]
  interaction score: -0.965
[50]
  interaction score: -2.16
[51]
  interaction score: -0.938
[52]
  interaction score: -0.082
[53]
  interaction score: -1.28
[54]
  interaction score: 0.514
[55]
  interaction score: -0.756
[56]
  interaction score: 1.89
[57]
  interaction score: -1.42
[58]
  interaction score: 2.16
[59]
  interaction score: 1.88
[60]
  interaction score: 2.25
[61]
  interaction score: -0.946
[62]
  interaction score: 0.841
[63]
  interaction score: -0.364
[64]
  interaction score: -0.495
[65]
  interaction score: -1.27
[66]
  interaction score: -1.37
[67]
  interaction score: -1.65
[68]
  interaction score: 1.79
[69]
  interaction score: 1.34
[70]
  interaction score: -1.78
[71]
  interaction score: -1.57
[72]
  interaction score: 1.89
[73]
  interaction score: 1.78
[74]
  interaction score: 0.612
